4 molecules from patent US20210275685A1 (IMMUNOGEN, published 2021) can be followed below.

For one test, the target named is T1, huFcRn (Homo sapiens, UniProt P55899).
T1 construct: construct not described; also called human neonatal Fc receptor
The experiment in a line: sensorgram (RU against time) at pH 6.0: FcRn immobilized, antibody injected at 25 nM and 100 nM; responses of about 60-70 RU and about 190 RU.

In test [1] the target is T2, His-tagged soluble human ADAM9 (human, UniProt Q13443 206-697).
T2 construct: also called shADAM9-His; huADAM9-His
T2 sequence: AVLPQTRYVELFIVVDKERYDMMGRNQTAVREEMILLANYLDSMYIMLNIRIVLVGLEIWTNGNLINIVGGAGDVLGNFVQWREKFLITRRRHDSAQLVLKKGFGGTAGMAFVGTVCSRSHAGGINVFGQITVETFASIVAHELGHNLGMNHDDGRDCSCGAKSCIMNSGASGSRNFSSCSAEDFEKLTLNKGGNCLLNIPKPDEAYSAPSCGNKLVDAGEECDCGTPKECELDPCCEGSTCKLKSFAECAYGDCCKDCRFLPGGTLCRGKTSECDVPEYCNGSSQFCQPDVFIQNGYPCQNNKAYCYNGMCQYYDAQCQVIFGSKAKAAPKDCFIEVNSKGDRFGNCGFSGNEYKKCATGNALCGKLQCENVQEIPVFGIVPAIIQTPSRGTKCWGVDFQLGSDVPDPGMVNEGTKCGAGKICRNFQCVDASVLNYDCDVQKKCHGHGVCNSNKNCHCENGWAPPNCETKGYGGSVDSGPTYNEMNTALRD
Put plainly: BIACORE, against antibodies without N54F (Table 3). From the text:
The relative binding affinity of the humanized/optimized antibodies hMAB-A (1.1), hMAB-A (2.2), hMAB-A (2.3), hMAB-A (3.3), hMAB-A (4.4) and the chimeric chMAB-A (having murine VH/VL Domains) to huADAM was investigated using BIACORE® analysis, in which His-tagged soluble human ADAM9 (“shADAM9-His,” containing an extracellular portion of human ADAM9 fused to a histidine-containing protein) was passed over a surface coated with immobilized antibody. Briefly, each antibody was captured on a Fab2 goat anti-human Fc surface and then incubated in the presence of different concentrations (6.25-100 nM) of the shADAM9-His protein. The kinetics of binding were determined via BIACORE® analysis binding (normalized 1:1 Langmuir binding model). Binding to cynoADAM9 was examined by FACS as described above and by ELISA.
(In general: Surface plasmon resonance follows binding to a sensor surface in real time, without labels.)

T1 sequence (P55899 24-297 limits assumed, form in doubt): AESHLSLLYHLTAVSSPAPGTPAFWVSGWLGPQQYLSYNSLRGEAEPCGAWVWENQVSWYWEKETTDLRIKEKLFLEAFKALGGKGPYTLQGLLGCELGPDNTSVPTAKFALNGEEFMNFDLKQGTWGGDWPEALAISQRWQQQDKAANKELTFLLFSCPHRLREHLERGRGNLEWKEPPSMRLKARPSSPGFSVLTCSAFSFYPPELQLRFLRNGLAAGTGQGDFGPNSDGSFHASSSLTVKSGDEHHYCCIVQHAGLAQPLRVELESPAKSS

B1: hMAB-A (2I.2) (antibody, human IgG1, kappa)
heavy: not shown
light: DIVMTQSPDSLAVSLGERATISCKASQSVDYSGDSYMNWYQQKPGQPPKLLIYAASDLESGIPARFSGSGSGTDFTLTISSLEPEDFATYYCQQSHEDPFTFGQGTKLEIKRTVAAPSVFIFPPSDEQLKSGTASVVCLLNNFYPREAKVQWKVDNALQSGNSQESVTEQDSKDSTYSLSSTLTLSKADYEKHKVYACEVTHQGLSSPVTKSFNRGEC
notes: also called MAB-A VH(2I); MAB-A VH(2I.2)
For the molecule B1, binding with huFcRn was put at a Kd of 161 nM. In other words, the sub-micromolar range.

B2: hMAB-A (2.2) (antibody, V domains shown)
VH: EVQLVESGGGLVKPGGSLRLSCAASGFTFSSYWMHWVRQAPGKGLEWVGEIIPIFGHTNYNEKFKSRFTISLDNSKNTLYLQMGSLRAEDTAVYYCARGGYYYYGSRDYFDYWGQGTTVTVSS
VL: DIVMTQSPDSLAVSLGERATISCKASQSVDYSGDSYMNWYQQKPGQPPKLLIYAASDLESGIPARFSGSGSGTDFTLTISSLEPEDFATYYCQQSHEDPFTFGQGTKLEIK
notes: also called parental hMAB-A (2.2); hMAB-A VH(2)/hMAB-A VL(2)
B2: the “fold increase in affinity” value in test [1] is around 2 fold.

B3: hMAB-A (3.3) (antibody, V domains shown)
VH: EVQLVESGGGLVKPGGSLRLSCAASGFTFSSYWMHWVRQAPGKGLEWVGEIIPIFGHTNYNERFQGRFTISLDNSKNTLYLQMGSLRAEDTAVYYCARGGYYYYGSRDYFDYWGQGTTVTVSS
VL: DIVMTQSPDSLAVSLGERATISCRASQSVDYSGDSYMNWYQQKPGQPPKLLIYAASDLESGIPARFSGSGSGTDFTLTISSLEPEDFATYYCQQSHEDPFTFGQGTKLEIK
notes: human Fc; also called hMAB-A VH(3)/hMAB-A VL(3)
Consider B3, for which the “fold increase in affinity” value in test [1] is around 2 fold.

B4: hMAB-A (2.3) (antibody, V domains shown)
VH: EVQLVESGGGLVKPGGSLRLSCAASGFTFSSYWMHWVRQAPGKGLEWVGEIIPIFGHTNYNEKFKSRFTISLDNSKNTLYLQMGSLRAEDTAVYYCARGGYYYYGSRDYFDYWGQGTTVTVSS
VL: DIVMTQSPDSLAVSLGERATISCRASQSVDYSGDSYMNWYQQKPGQPPKLLIYAASDLESGIPARFSGSGSGTDFTLTISSLEPEDFATYYCQQSHEDPFTFGQGTKLEIK
notes: human Fc; also called hMAB-A VH(2)/hMAB-A VL(3)
B4: the “fold increase in affinity” value in test [1] was around 2 fold.
